These results are taken from paper PMC4470285, “A cell cycle-controlled redox switch regulates the topoisomerase IV activity” (Genes & Development, 2015).

The target in series [1] is NstA(C8Y)-GFP (C. crescentus). The series can be described thus: non-reducing SDS-PAGE with immunoblot; GFP fusions expressed from the xylX locus in C. crescentus; reducing against non-reducing SDS-PAGE; disulfide-linked dimer; also synchronized cells at 0 and 60 min.
Series [2] concerns the target NstA-seGFP (C. crescentus). Put plainly: not stated; cells overproducing NstA-seGFP, with or without 7.5 uM NEM (Supplemental Fig. S11B).
Series [3] concerns the molecule itself. The series can be described thus: non-reducing SDS-PAGE with immunoblot; GFP fusions expressed from the xylX locus in C. crescentus; reducing against non-reducing SDS-PAGE; disulfide-linked dimer; also synchronized cells at 0 and 60 min.

Turning to NstA(C8Y)-GFP (natural protein), the stoichiometry N in series [1] was found to be 2.

For NstA-seGFP (natural protein), the stoichiometry N in series [2] is 2.

B1: NstA-GFP (natural protein, C. crescentus, UniProt A0A0H3CC90 1-66, looked up)
chain: MQVFTFFCVESDGSVPRFDVTPCADDAAARVRAFELLDMHHRCDFVEVWRGAQRVFDVFAQQVAAA
notes: NstA (CCNA_03091), C. crescentus, predicted protein of 66 residues; also called functional C-terminal GFP version of wild-type NstA; xylX::Pxyl-nstA-gfp; source: wild-type C. crescentus, expressed from the xylX locus on the chromosome, in lysate; not shown: GFP, C-terminal, kept
With B1, the “stoichiometry N” value in series [3] came out at 2.
